Experimental data taken from paper PMC3720892, “Functional Analysis of the Superfamily 1 DNA Helicases Encoded by Mycoplasma pneumoniae and Mycoplasma genitalium”.

Key:
PcrA Mge [1] = molecular target: T1, PcrA Mge (Mycoplasma genitalium strain G37, UniProt P47486 1-703); experiment: EMSA; 22-200 nM protein; 20 mM Tris-HCl pH 7.5, 1 mM DTT, 50 ng/ul BSA, 8 nM DNA, 15 min at room temperature, no Mg2+ or ATP listed; 6% PAGE in 1x TBE; details: protein: recombinant; tags: N-terminal MBP; label: 5' 6-FAM
T1 sequence: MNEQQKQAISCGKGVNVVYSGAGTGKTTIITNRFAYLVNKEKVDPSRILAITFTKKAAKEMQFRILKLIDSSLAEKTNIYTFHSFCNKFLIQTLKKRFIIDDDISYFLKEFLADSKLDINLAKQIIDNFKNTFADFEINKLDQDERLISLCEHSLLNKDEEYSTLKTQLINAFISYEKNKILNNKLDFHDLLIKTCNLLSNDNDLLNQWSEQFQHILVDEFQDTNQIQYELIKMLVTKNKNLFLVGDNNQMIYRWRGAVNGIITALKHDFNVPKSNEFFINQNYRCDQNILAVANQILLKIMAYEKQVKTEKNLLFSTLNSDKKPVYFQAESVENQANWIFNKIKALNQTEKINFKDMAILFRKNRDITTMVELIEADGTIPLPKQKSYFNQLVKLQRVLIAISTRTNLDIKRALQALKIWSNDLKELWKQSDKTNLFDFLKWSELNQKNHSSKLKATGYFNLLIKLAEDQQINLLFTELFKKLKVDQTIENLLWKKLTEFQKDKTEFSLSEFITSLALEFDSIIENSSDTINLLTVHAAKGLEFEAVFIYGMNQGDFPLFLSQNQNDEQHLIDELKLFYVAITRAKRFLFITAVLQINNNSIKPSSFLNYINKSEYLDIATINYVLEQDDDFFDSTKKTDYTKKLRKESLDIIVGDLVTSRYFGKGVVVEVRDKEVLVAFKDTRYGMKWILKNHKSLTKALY

PcrA Mpn [2] = molecular target: T2, PcrA Mpn (Mycoplasma pneumoniae strain M129, UniProt P75437 1-715); experiment: as above; details: protein: recombinant; tags: N-terminal MBP; label: 5' 6-FAM
T2 sequence: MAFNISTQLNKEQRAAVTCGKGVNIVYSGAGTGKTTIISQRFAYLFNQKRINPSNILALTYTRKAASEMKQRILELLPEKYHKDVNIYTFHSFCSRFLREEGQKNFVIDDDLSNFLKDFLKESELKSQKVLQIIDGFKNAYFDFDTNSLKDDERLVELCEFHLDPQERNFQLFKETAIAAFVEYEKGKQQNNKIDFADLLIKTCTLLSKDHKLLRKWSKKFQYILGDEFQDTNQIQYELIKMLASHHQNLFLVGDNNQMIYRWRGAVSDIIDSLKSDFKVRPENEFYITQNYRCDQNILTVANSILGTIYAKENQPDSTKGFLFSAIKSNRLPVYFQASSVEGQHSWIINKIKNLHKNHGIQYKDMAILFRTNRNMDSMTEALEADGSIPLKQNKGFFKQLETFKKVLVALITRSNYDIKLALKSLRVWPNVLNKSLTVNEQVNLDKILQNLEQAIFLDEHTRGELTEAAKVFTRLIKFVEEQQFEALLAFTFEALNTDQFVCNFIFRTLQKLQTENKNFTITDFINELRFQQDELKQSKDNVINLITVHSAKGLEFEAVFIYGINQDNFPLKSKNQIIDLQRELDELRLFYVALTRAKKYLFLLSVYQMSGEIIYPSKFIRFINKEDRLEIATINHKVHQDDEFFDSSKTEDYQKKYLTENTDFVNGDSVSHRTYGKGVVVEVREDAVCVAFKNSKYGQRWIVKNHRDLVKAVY

PcrAs M129 = molecular target: T3, PcrAs M129 (Mycoplasma pneumoniae strain M129, UniProt P75438 1-529); experiment: EMSA; up to 200 nM protein; 20 mM Tris-HCl pH 7.5, 1 mM DTT, 50 ng/ul BSA, 8 nM DNA, 15 min at room temperature, no Mg2+ or ATP listed; 6% PAGE in 1x TBE; details: protein: recombinant, tags: N-terminal MBP
T3 sequence: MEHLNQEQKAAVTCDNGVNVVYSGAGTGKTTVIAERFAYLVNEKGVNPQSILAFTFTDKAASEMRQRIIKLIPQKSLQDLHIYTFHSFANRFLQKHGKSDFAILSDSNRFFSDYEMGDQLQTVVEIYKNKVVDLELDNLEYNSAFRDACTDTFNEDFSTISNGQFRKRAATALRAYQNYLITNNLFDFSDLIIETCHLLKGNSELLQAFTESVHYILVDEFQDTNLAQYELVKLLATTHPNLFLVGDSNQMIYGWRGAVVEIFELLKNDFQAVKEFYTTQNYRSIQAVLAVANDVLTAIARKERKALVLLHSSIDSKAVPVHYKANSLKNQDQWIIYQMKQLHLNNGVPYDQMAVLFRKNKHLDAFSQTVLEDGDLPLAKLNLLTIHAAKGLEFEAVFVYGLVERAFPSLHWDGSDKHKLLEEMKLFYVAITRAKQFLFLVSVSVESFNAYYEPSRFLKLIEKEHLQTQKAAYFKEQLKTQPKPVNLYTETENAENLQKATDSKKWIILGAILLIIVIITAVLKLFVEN

PcrA Mge [3] = molecular target: T1, PcrA Mge; experiment: EMSA; 22-200 nM protein; most complexes did not enter gel; 20 mM Tris-HCl pH 7.5, 1 mM DTT, 50 ng/ul BSA, 8 nM DNA, 15 min at room temperature, no Mg2+ or ATP listed; 6% PAGE in 1x TBE; details: protein: recombinant; tags: N-terminal MBP; label: 5' 6-FAM on one strand; 3' overhang 24 nt
PcrA Mpn [4] = molecular target: T2, PcrA Mpn; experiment: as above; details: protein: recombinant; tags: N-terminal MBP; label: 5' 6-FAM on one strand; 3' overhang 24 nt
PcrA Mge [5] = molecular target: T1, PcrA Mge; experiment: EMSA; 22-200 nM protein; discrete complex IV; 20 mM Tris-HCl pH 7.5, 1 mM DTT, 50 ng/ul BSA, 8 nM DNA, 15 min at room temperature, no Mg2+ or ATP listed; 6% PAGE in 1x TBE; details: protein: recombinant; tags: N-terminal MBP; label: 5' 6-FAM on one strand; 5' overhang 24 nt
PcrA Mpn [6] = molecular target: T2, PcrA Mpn; experiment: EMSA; 22-200 nM protein; discrete complex III; 20 mM Tris-HCl pH 7.5, 1 mM DTT, 50 ng/ul BSA, 8 nM DNA, 15 min at room temperature, no Mg2+ or ATP listed; 6% PAGE in 1x TBE; details: protein: recombinant; tags: N-terminal MBP; label: 5' 6-FAM on one strand; 5' overhang 24 nt

B1: oligonucleotide 1 (ssDNA)
DNA: CAAAGTAAGAGCTTCTCGAGCTGCGCAAGGATAGGTCGAATTTTCTCATTTT
PcrA Mge [1]
  binding result: binds
PcrA Mpn [2]
  binding result: binds
PcrAs M129; label: 5' 6-FAM
  binding result: no binding

B2: substrate a (dsDNA)
DNA 1: CAAAGTAAGAGCTTCTCGAGCTGCGCAAGGATAGGTCGAATTTTCTCATTTT
DNA 2: AAAATGAGAAAATTCGACCTATCCTTGCGCAGCTCGAGAAGCTCTTACTTTGATCGGATCCATGAATGAACAACAA
PcrAs M129; label: 5' 6-FAM on one strand, 3' overhang 24 nt
  binding result: no binding
PcrA Mge [3]
  binding result: binds
PcrA Mpn [4]
  binding result: binds

B3: substrate b (dsDNA)
DNA 1: CAAAGTAAGAGCTTCTCGAGCTGCGCAAGGATAGGTCGAATTTTCTCATTTT
DNA 2: ATCGGATCCATGAATGAACAACAAAAAATGAGAAAATTCGACCTATCCTTGCGCAGCTCGAGAAGCTCTTACTTTG
PcrAs M129; label: 5' 6-FAM on one strand, 5' overhang 24 nt
  binding result: no binding
PcrA Mge [5]
  binding result: binds
PcrA Mpn [6]
  binding result: binds

B4: substrate c (dsDNA)
DNA 1: CAAAGTAAGAGCTTCTCGAGCTGCGCAAGGATAGGTCGAATTTTCTCATTTT
DNA 2: AAAATGAGAAAATTCGACCTATCCTTGCGCAGCTCGAGAAGCTCTTACTTTG
PcrAs M129; label: 5' 6-FAM on one strand, blunt
  binding result: no binding
